Source: PMC9482650, “Quantitative fragmentomics allow affinity mapping of interactomes” (Nature Communications, 2022)

Columns and labels:
Test in all cases: holdup assay
Parameters in all cases: key: below the threshold = too weak to quantify, mostly under pKd 3.1 to 4
[1] = biological target: T1, HTRA4, P83105
T1 sequence (P83105 378-476, limits assumed, looked up): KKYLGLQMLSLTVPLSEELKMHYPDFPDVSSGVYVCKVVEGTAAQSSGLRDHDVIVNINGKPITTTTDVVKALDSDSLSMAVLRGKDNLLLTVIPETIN

[2] = biological target: Inadl_2, Q8NI35
[3] = biological target: GRASP, Q7Z6J2
[4] = biological target: T2, RAPGEF6, Q8TEU7
T2 sequence (Q8TEU7 525-625, limits assumed, looked up): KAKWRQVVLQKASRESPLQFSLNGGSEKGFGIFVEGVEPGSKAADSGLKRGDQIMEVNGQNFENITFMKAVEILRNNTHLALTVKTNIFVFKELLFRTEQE

[5] = biological target: HTRA1, Q92743
[6] = biological target: NHERF2_2, Q15599
[7] = biological target: NHERF4_4, Q86UT5
[8] = biological target: MAGI3_2, Q5TCQ9
[9] = biological target: MAGI2_5, Q86UL8
[10] = biological target: DLG4_1, P78352
[11] = biological target: LIMK2, P53671
[12] = biological target: T3, NHERF3_3, Q5T2W1
T3 sequence (Q5T2W1 238-333, limits assumed, looked up): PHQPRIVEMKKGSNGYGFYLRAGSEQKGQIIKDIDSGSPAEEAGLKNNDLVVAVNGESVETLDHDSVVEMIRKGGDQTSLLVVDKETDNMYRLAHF

[13] = biological target: LDB3, O75112
[14] = biological target: GRID2IP_1, A4D2P6
[15] = biological target: DLG2_2, Q15700
[16] = biological target: T4, CARD11, Q9BXL7
T4 sequence (Q9BXL7 662-765, limits assumed, looked up): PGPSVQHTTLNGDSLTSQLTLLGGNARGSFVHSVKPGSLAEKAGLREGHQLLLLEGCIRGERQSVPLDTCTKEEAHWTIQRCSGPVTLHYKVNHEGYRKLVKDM

[17] = biological target: GRIP2_7, Q9C0E4
[18] = biological target: T5, GRIP1_3, Q9Y3R0
T5 sequence (Q9Y3R0 247-346, limits assumed, looked up): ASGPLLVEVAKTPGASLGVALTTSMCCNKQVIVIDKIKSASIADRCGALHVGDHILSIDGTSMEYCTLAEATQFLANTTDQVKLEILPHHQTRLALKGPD

[19] = biological target: T6, DFNB31_1, Q9P202
T6 sequence (Q9P202 135-233, limits assumed, looked up): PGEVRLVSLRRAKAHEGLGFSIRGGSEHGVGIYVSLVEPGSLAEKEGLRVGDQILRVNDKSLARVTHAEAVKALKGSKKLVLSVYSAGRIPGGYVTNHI

[20] = biological target: Inadl_6, Q8NI35
[21] = biological target: MAGI2_2, Q86UL8
[22] = biological target: PARD3_3, Q8TEW0
[23] = biological target: GRIP2_4, Q9C0E4
[24] = biological target: T7, SHANK1, Q9Y566
T7 sequence (Q9Y566 658-767, limits assumed, looked up): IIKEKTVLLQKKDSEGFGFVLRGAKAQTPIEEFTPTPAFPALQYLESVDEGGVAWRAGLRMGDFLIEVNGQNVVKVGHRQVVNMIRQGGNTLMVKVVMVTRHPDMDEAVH

[25] = biological target: T8, LIN7C, Q9NUP9
T8 sequence (Q9NUP9 88-185, limits assumed, looked up): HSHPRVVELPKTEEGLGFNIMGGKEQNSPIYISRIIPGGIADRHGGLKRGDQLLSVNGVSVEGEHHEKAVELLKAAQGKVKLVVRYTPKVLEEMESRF

[26] = biological target: T9, APBA3_1, O96018
T9 sequence (O96018 389-490, limits assumed, looked up): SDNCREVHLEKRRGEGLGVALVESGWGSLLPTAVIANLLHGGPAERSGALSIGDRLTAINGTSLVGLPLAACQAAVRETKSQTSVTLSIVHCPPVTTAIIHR

[27] = biological target: SNX27, Q96L92
[28] = biological target: FRMPD2_2, Q68DX3
[29] = plain residues with an end cap or a label only (N-terminal biotin on a linker: ahx)
[30] = plain residues with an end cap or a label only (N-terminal biotin on a linker: ado-ado)

Measured: pKd

MAGI3_2, Q5TCQ9, sequence (Q5TCQ9 398-503): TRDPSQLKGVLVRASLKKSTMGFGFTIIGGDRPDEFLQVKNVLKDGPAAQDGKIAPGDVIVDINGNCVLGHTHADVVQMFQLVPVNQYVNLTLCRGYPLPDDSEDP
NHERF2_2, Q15599, sequence (Q15599 142-238): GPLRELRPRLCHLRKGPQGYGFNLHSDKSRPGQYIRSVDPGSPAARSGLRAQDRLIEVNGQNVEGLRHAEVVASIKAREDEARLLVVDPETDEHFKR
GRIP2_7, Q9C0E4, sequence (Q9C0E4 934-1023): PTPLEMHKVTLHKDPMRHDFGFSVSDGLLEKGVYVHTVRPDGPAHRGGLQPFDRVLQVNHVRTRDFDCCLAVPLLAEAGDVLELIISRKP
GRASP, Q7Z6J2, sequence (Q7Z6J2 96-193): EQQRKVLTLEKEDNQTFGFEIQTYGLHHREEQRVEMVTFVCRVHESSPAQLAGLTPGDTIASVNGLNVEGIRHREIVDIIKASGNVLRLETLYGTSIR
GRID2IP_1, A4D2P6, sequence (A4D2P6 1-87): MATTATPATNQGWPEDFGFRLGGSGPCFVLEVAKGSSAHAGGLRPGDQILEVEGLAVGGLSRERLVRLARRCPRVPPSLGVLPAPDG
DLG2_2, Q15700, sequence (Q15700 189-283): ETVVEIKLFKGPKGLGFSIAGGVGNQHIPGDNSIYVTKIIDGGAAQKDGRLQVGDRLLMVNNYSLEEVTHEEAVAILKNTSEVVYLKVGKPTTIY
Inadl_6, Q8NI35, sequence (Q8NI35 1058-1167): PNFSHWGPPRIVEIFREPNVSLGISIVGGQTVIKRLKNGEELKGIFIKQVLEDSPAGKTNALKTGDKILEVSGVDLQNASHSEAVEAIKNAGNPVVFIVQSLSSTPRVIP
MAGI2_2, Q86UL8, sequence (Q86UL8 410-522): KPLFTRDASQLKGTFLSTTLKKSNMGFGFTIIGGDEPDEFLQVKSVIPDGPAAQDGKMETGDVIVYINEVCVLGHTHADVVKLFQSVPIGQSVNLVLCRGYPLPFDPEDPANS
LDB3, O75112, sequence (O75112 1-94): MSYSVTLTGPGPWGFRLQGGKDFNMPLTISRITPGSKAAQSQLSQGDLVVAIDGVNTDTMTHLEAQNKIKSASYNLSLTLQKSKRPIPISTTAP
DLG4_1, P78352, sequence (P78352 62-152): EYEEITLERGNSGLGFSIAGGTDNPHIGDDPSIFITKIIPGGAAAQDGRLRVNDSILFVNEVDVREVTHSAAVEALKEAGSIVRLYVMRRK
HTRA1, Q92743, sequence (Q92743 360-477): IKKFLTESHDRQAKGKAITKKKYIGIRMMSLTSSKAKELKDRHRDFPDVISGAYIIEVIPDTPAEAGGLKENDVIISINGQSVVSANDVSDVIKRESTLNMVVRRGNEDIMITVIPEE
PARD3_3, Q8TEW0, sequence (Q8TEW0 582-685): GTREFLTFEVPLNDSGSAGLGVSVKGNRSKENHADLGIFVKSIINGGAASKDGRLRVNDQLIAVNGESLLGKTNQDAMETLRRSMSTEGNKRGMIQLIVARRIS
LIMK2, P53671, sequence (P53671 143-248): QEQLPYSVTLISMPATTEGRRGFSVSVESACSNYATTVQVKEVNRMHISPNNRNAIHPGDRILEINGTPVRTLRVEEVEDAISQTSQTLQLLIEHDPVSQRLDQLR
MAGI2_5, Q86UL8, sequence (Q86UL8 915-1017): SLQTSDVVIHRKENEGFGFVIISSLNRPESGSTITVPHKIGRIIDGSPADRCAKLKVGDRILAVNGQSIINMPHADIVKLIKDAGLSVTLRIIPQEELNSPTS
FRMPD2_2, Q68DX3, sequence (Q68DX3 944-1038): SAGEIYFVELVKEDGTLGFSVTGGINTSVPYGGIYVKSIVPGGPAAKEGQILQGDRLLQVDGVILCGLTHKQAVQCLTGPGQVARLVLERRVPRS
Inadl_2, Q8NI35, sequence (Q8NI35 238-335): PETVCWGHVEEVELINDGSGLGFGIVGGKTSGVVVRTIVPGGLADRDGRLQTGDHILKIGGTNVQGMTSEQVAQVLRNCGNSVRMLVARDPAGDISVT
GRIP2_4, Q9C0E4, sequence (Q9C0E4 446-548): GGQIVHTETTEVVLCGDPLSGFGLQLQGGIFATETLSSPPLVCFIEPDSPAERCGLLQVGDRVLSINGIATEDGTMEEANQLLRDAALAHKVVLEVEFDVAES
NHERF4_4, Q86UT5, sequence (Q86UT5 464-550): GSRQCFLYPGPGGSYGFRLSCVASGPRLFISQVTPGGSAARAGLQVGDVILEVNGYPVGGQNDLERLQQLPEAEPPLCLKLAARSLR

EKQAKGDTEF [CACYBP, Q9HB71]
3.55: [6]; [29]
below the threshold: [1]; [29] | [2]; [29] | [3]; [29] | [4]; [29] | [5]; [29] | [7]; [29] | [8]; [29] | [9]; [29] | [10]; [29] | [11]; [29] | [12]; [29] | [13]; [29] | [14]; [29] | [15]; [29] | [16]; [29] | [17]; [29] | [18]; [29] | [19]; [29] | [20]; [29] | [21]; [29] | [22]; [29] | [23]; [29] | [24]; [29] | [25]; [29] | [26]; [29] | [28]; [29]
3.68: [27]; [29]

KPGKGSETVV [FZD4, Q9ULV1]
3.56: [20]; [30]
4.08: [25]; [30]
5.64: [8]; [30]
5.22: [21]; [30]
4.3: [5]; [30]
4.62: [27]; [30]
below the threshold: [1]; [30] | [2]; [30] | [3]; [30] | [4]; [30] | [6]; [30] | [7]; [30] | [11]; [30] | [12]; [30] | [13]; [30] | [14]; [30] | [16]; [30] | [17]; [30] | [18]; [30] | [22]; [30] | [23]; [30] | [24]; [30] | [26]; [30] | [28]; [30]
3.55: [9]; [30]
4.87: [15]; [30]
3.91: [19]; [30]
4.85: [10]; [30]

AAVENKVTDL [PLXNB1, O43157]
4.14: [20]; [30]
3.47: [19]; [30]
3.68: [10]; [30]
3.93: [3]; [30]
4.07: [6]; [30]
4.12: [5]; [30] | [27]; [30]
3.95: [15]; [30]
below the threshold: [1]; [30] | [2]; [30] | [4]; [30] | [7]; [30] | [8]; [30] | [9]; [30] | [11]; [30] | [12]; [30] | [13]; [30] | [14]; [30] | [16]; [30] | [17]; [30] | [18]; [30] | [21]; [30] | [22]; [30] | [23]; [30] | [24]; [30] | [25]; [30] | [26]; [30] | [28]; [30]
